Patent publication US20050054563A1 (Genentech, published 2005)

B1: decorin from bovine articular cartilage (Sigma) (other, UniProt P21793 31-360, looked up)
chain: DEASGIGPEEHFPEVPEIEPMGPVCPFRCQCHLRVVQCSDLGLEKVPKDLPPDTALLDLQNNKITEIKDGDFKNLKNLHTLILINNKISKISPGAFAPLVKLERLYLSKNQLKELPEKMPKTLQELRVHENEITKVRKSVFNGLNQMIVVELGTNPLKSSGIENGAFQGMKKLSYIRIADTNITTIPQGLPPSLTELHLDGNKITKVDAASLKGLNNLAKLGLSFNSISAVDNGSLANTPHLRELHLNNNKLVKVPGGLADHKYIQVVYLHNNNISAIGSNDFCPPGYNTKKASYSGVSLFSNPVQYWEIQPSTFRCVYVRAAVQLGNYK
modifications: proteoglycan; dermatan sulfate glycosaminoglycan chain on the core protein (site not stated for this preparation)
B2: biglycan from bovine articular cartilage (Sigma) (other, UniProt P21809 38-369, looked up)
chain: DEEASGAETTSGIPDLDSLPPTYSAMCPFGCHCHLRVVQCSDLGLKAVPKEISPDTTLLDLQNNDISELRKDDFKGLQHLYALVLVNNKISKIHEKAFSPLRKLQKLYISKNHLVEIPPNLPSSLVELRIHDNRIRKVPKGVFSGLRNMNCIEMGGNPLENSGFEPGAFDGLKLNYLRISEAKLTGIPKDLPETLNELHLDHNKIQAIELEDLLRYSKLYRLGLGHNQIRMIENGSLSFLPTLRELHLDNNKLSRVPAGLPDLKLLQVVYLHTNNITKVGVNDFCPVGFGVKRAYYNGISLFNNPVPYWEVQPATFRCVTDRLAIQFGNYKK
modifications: proteoglycan; glycosaminoglycan chains on the core protein (sites not stated for this preparation)

Experiments:
[1] = target: T1, mouse WISP-1-IgG (chimeric recombinant mouse WISP-1 bearing a human immunoglobulin Fc fragment tag) (mouse); assay: competition solid phase assay: 0.25 nM WISP-1-IgG on coated human skin fibroblast conditioned media, soluble decorin varied
T1 construct: also called mWISP-1-IgG; WISP-1-Fc
Protocol: (§1) Decorin and biglycan were coated to microtiter wells overnight. Non-specific binding sites were saturated and 0.25 nM of mWISP-1-IgG was incubated for 2 hours. The wells were washed and incubated with horseradish peroxidase conjugated anti-human IgG Fc′ (2 μg/ml) for 1 hour. After 6 washes with PBS containing 0.05% Tween-20, a signal was developed by the incubation of a chromogenic substrate. The color development was stopped by the addition of 1 M phosphoric acid and the O.D. at 450 nm was measured.
(§2) Fifty microliters of human skin fibroblast conditioned media were coated in wells of microtiter plates. Non-specific binding sites were saturated and 0.25 nM of WISP-1-IgG was incubated in the presence of various concentrations of decorin (filled circles) or biglycan (empty circles) (FIG. 5B) for 2 hours. The binding of mWISP-1-IgG was evaluated as described above.

[2] = target: T1, mouse WISP-1-IgG (chimeric recombinant …); assay: competition solid phase assay: 0.25 nM WISP-1-IgG on coated human skin fibroblast conditioned media, soluble biglycan varied
Protocol: as §1, §2

T1 sequence (chain, as listed by the source mutant limits assumed): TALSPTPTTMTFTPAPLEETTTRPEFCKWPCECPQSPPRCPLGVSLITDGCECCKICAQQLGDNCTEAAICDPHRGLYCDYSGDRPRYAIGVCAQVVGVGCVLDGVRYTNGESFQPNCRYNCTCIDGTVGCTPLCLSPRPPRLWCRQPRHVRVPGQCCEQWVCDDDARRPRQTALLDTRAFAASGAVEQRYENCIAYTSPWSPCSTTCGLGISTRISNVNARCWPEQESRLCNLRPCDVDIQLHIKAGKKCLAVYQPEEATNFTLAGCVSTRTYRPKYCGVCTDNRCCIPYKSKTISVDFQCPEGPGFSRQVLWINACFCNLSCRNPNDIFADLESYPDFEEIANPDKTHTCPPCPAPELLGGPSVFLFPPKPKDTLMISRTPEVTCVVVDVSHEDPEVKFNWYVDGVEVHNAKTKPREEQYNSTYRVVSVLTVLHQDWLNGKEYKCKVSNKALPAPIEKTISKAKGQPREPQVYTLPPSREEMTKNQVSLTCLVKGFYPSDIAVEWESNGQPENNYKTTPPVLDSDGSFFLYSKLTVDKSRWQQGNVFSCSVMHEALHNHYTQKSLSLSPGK

| Binder | IC50 [1] [µg/mL] | IC50 [2] [µg/mL] |
| --- | --- | --- |
| B1 | 70 | – |
| B2 | – | 105 |
